Ends that are not written are not given here.
B1: #57: Gly^B2-PEG20K-Gly^B2 #11 dimer (ligand)
chain: GPEHLCGAHLVDALYLVCGDRGFYGYGSSSRRAPQTGIVDECCHRSCDLRRLENYCN
modifications: not fully specified (N-terminus); ends and bridges not checked; also: dimer: N-terminal amines of two chains joined by bifunctional 20K PEG linker
B2: IGF1 (Y^B16L^B17) (ligand)
chain 1: GIVDECCFRSCDLRRLEMYCA
chain 2: GPETLCGAELVDALYLVCGDRGFYFNKPT
notes: also called IGF analog IGF1 (Y^B16L^B17)

Assays:
human insulin receptor [1] = biological target: T1, human insulin receptor (human, UniProt P06213 28-1382); assay: cell-based or functional assay
human IGF-1 receptor [2] = biological target: T2, human IGF-1 receptor (human, UniProt P08069 31-1367); assay: cell-based or functional assay
human IGF-1 receptor [3] = biological target: T2, human IGF-1 receptor; assay: cell-based or functional assay; remark: listed apart in the source
human insulin receptor [4] = biological target: T1, human insulin receptor; assay: competition SPA, [125I]insulin

Binder	potency in vitro against monomer #39 (human insulin receptor [1]) [fold]	% Insulin Activity (in vitro, assay not named) (human IGF-1 receptor [2]) [%]	Phosphorylation (EC50), % IGF-1 R (human IGF-1 receptor [3]) [%]	IC50 (human insulin receptor [4]) [nM]
B1	~5	2.6	2.6	
B2				0.51
